Test results taken from PMC12328718.

Target: T1, SHMT2 K281S-R284S K302S;R305S (UniProt P34897)
T1 sequence: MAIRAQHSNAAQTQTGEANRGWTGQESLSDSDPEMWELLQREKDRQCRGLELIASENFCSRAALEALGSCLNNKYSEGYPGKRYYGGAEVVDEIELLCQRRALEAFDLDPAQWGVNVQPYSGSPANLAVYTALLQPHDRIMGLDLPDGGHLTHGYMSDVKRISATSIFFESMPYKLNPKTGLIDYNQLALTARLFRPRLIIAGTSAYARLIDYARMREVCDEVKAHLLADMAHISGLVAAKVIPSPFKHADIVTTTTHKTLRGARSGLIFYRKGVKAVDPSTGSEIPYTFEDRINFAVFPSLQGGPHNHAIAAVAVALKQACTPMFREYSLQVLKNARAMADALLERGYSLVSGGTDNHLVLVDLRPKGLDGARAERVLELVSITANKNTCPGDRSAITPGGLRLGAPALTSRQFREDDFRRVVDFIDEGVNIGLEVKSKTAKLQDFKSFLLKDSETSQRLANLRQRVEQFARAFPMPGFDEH
Test: EMSA
Details: EMSA: 20 mM HEPES pH 7.4, 150 mM NaCl, 20 ug/ml BSA, 0.1 ug tRNA, RNase inhibitor, 8% glycerol, 25 C, 30 min; 4% native PAGE in 0.5x TBE

In the case of “GGGAUAAAGAAAAAAGCGGUGAGUGGGCGAACUACAAUUCCCAAAAGGCCACAAAGGGGCCACCACUACGCAUGCGUAGAUCCCUCCCGUUAGCUUUGGCGCCUCAGCGAGCUCUUCUCGCGCAUGCGUUCUCCGAACGGUCUUCUUCCGACAGCUUGCUGCCCUAGACCAGAGUUGGUGGCUGGACCUCCUGCGACUUCCGAGUUGCG [UTR2 RNA]”, the Kd is reported as 1600 nM.
